# According to publication PMC11574045, “A cofactor-induced repressive type of transcription factor condensation can be induced by synthetic peptides to suppress tumorigenesis” (The EMBO Journal, 2024):
# Test system: HEK293FT cells transfected with TF library
# Experiment: Screening of TF condensates based on fluorescent puncta
# Format: cell-based
# Details: Figure 1B numerical data; TF library screen, one value per transcriptional factor
# Summary of the method: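 HEK293FT, PEI transfection of TF library, 60 h; ±glucose 12 h; 4% PFA fix, 0.05% Triton X-100 permeabilization, 5% BSA block; anti-Flag/anti-GAL4 overnight at 4 °C, Alexa 488 secondary 1 h; high-content imaging, 50 fields/well.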
row,Molecule,Z score of condensed fraction
1,"CEBPD (protein, UniProt P49716 2-269, looked up) CCAAT/enhancer-binding …: SAALFSLDGPARGAPWPAEPAPFYEPGRAGKPGRGAEPGALGEPGAAAPAMYDDESAIDFSAYIDSMAAVPTLELCHDELFADLFNSNHKAGGAGPLELLPGGPARPLGPGPAAPRLLKREPDWGDGDAPGSLLPAQVAACAQTVVSLAAAGQPTPPTSPEPPRSSPRQTPAPGPAREKSAGKRGPDRGSPEYRQRRERNNIAVRKSRDKAKRRNQEMQQKLVELSAENEKLHQRVEQLTRDLAGLRQFFKQLPSPPFLPAAGTADCR",-0.4872
2,"CEBPG (protein, UniProt P53567 1-150, looked up) CCAAT/enhancer-binding …: MSKISQQNSTPGVNGISVIHTQAHASGLQQVPQLVPAGPGGGGKAVAPSKQSKKSSPMDRNSDEYRQRRERNNMAVKKSRLKSKQKAQDTLQRVNQLKEENERLEAKIKLLTKELSVLKDLFLEHAHNLADNVQSISTENTTADGDNAGQ",0.2566
3,"CEBPE (protein, UniProt Q15744 1-281, looked up) CCAAT/enhancer-binding …: MSHGTYYECEPRGGQQPLEFSGGRAGPGELGDMCEHEASIDLSAYIESGEEQLLSDLFAVKPAPEARGLKGPGTPAFPHYLPPDPRPFAYPPHTFGPDRKALGPGIYSSPGSYDPRAVAVKEEPRGPEGSRAASRGSYNPLQYQVAHCGQTAMHLPPTLAAPGQPLRVLKAPLATAAPPCSPLLKAPSPAGPLHKGKKAVNKDSLEYRLRRERNNIAVRKSRDKAKRRILETQQKVLEYMAENERLRSRVEQLTQELDTLRNLFRQIPEAANLIKGVGGCS",-0.2607
4,"ZZZ3 (protein, UniProt Q8IYH5 1-903, looked up) ZZ-type zinc …: MAASRSTRVTRSTVGLNGLDESFCGRTLRNRSIAHPEEISSNSQVRSRSPKKRPEPVPIQKGNNNGRTTDLKQQSTRESWVSPRKRGLSSSEKDNIERQAIENCERRQTEPVSPVLKRIKRCLRSEAPNSSEEDSPIKSDKESVEQRSTVVDNDADFQGTKRACRCLILDDCEKREIKKVNVSEEGPLNSAVVEEITGYLAVNGVDDSDSAVINCDDCQPDGNTKQNSIGSYVLQEKSVAENGDTDTQTSMFLDSRKEDSYIDHKVPCTDSQVQVKLEDHKIVTACLPVEHVNQLTTEPATGPFSETQSSLRDSEEEVDVVGDSSASKEQCKENTNNELDTSLESMPASGEPEPSPVLDCVSAQMMSLSEPQEHRYTLRTSPRRAAPTRGSPTKNSSPYRENGQFEENNLSPNETNATVSDNVSQSPTNPGEISQNEKGICCDSQNNGSEGVSKPPSEARLNIGHLPSAKESASQHITEEEDDDPDVYYFESDHVALKHNKDYQRLLQTIAVLEAQRSQAVQDLESLGRHQREALKNPIGFVEKLQKKADIGLPYPQRVVQLPEIVWDQYTHSLGNFEREFKNRKRHTRRVKLVFDKVGLPARPKSPLDPKKDGESLSYSMLPLSDGPEGSSSRPQMIRGRLCDDTKPETFNQLWTVEEQKKLEQLLIKYPPEEVESRRWQKIADELGNRTAKQVASRVQKYFIKLTKAGIPVPGRTPNLYIYSKKSSTSRRQHPLNKHLFKPSTFMTSHEPPVYMDEDDDRSCFHSHMNTAVEDASDDESIPIMYRNLPEYKELLQFKKLKKQKLQQMQAESGFVQHVGFKCDNCGIEPIQGVRWHCQDCPPEMSLDFCDSCSDCLHETDIHKEDHQLEPIYRSETFLDRDYCVSQGTSYNYLDPNYFPANR",-0.9122
5,"AATF (protein, UniProt Q9JKX4 2-526, looked up) Protein AATF: AAPQPLALQLEQLLNPRPREADPEADPEEATRARVIDRFDEGEEEKDDLAVSSIRKLAPVSLLDTDKRYSGKTTSRKAWKEDHWEQALPSSSDNEASDEGGSEDGDSEGLGLEEISEDVDEDLEDNKISDEGGSEDGDSEGLGLEEFSEDVEEDLEGEDEEDREEDRNSEDDGVVAAFSSVKVSEEVEKGRAVKNQIALWDQLLEGRIKLQKALLTTNQLPQPDVFPVFKDKGGPEFASALKNSHKALKALLRSLVDLQEELLFQYPDTRHIVNGAKPNTESEEISSEDDELVGEKKKQRKAPPKRKLEMEDYPSFMAKRFADFTIYRNHTLQKWHDKTKLASGKLGKGFGAFERSILTQIDHIMMDKERLLRRTQTKRSAYRVLGKPEPVPEPVAETLPGEPETLPQGPANAHLRDLDEEIFDDDDFYHQLLRELIERKTSSLDPNDQVAMGRQWLAIQKLRSKIRKKVDRKASKGRKLRFHVLSKLLSFMAPIDHTAMSDDARTELFRSLFGQLNPPDADRGK",-0.6879
